IntAct's records for PubMed 20840750

B1: Cryptochrome-2 (Mus musculus), Q9R194 (parent)
chain: MAAAAVVAATVPAQSMGADGASSVHWFRKGLRLHDNPALLAAVRGARCVRCVYILDPWFAASSSVGINRWRFLLQSLEDLDTSLRKLNSRLFVVRGQPADVFPRLFKEWGVTRLTFEYDSEPFGKERDAAIMKMAKEAGVEVVTENSHTLYDLDRIIELNGQKPPLTYKRFQALISRMELPKKPAVAVSSQQMESCRAEIQENHDDTYGVPSLEELGFPTEGLGPAVWQGGETEALARLDKHLERKAWVANYERPRMNANSLLASPTGLSPYLRFGCLSCRLFYYRLWDLYKKVKRNSTPPLSLFGQLLWREFFYTAATNNPRFDRMEGNPICIQIPWDRNPEALAKWAEGKTGFPWIDAIMTQLRQEGWIHHLARHAVACFLTRGDLWVSWESGVRVFDELLLDADFSVNAGSWMWLSCSAFFQQFFHCYCPVGFGRRTDPSGDYIRRYLPKLKGFPSRYIYEPWNAPESVQKAAKCIIGVDYPRPIVNHAETSRLNIERMKQIYQQLSRYRGLCLLASVPSCVEDLSHPVAEPGSSQAGSISNTGPRALSSGPASPKRKLEAAEEPPGEELTKRARVTEMPTQEPASKDS

Variants of: B1
Conditions: with per2_mouse Per2, O54943
per2_mouse Per2, O54943, sequence (O54943 whole entry): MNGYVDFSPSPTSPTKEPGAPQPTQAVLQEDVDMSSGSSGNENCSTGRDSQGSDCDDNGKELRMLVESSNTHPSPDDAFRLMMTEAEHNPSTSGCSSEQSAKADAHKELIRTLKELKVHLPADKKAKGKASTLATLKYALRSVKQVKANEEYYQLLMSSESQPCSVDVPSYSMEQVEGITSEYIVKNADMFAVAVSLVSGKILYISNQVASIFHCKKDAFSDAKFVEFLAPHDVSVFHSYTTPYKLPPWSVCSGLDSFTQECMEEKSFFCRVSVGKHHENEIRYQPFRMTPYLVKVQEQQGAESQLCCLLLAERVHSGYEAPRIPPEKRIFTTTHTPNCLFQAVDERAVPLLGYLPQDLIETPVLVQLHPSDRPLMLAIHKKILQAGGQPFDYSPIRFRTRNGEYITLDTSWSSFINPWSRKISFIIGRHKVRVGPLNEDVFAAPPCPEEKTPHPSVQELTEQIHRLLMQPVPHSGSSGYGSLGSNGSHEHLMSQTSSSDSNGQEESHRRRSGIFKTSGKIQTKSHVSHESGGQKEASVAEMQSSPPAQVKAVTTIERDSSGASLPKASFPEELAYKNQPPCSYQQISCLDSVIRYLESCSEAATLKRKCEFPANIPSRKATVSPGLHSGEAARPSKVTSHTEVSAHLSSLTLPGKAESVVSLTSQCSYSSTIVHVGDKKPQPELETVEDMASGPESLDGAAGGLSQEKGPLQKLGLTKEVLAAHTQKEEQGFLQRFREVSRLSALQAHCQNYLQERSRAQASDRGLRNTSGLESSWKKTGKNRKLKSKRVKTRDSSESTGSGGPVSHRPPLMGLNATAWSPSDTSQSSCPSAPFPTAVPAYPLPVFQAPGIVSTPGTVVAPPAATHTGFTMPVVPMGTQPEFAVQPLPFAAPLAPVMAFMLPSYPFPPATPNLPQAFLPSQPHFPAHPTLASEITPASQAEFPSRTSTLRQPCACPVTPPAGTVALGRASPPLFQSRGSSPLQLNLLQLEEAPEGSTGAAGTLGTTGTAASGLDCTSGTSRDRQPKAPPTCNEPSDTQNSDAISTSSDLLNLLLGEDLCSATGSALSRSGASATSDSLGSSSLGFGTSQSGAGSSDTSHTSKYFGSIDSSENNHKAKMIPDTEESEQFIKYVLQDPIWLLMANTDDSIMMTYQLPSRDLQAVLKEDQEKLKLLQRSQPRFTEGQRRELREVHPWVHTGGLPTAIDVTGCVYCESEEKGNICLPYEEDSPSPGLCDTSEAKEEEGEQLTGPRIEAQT

Effect of a mutation on the interaction, decreasing interaction:
E493G;L497P;K503R;I505T;L509P
S495G;L497P;I499T;K503R;I505T;L509P
S495G;L497P;I499T;R501Q;K503R;I505T;L509P
L497P;I499T;R501Q;I505T;L509P
I499T;K503R;I505T;L509P
I499T;R501Q
I499T;R501Q;I505T;L509P
R501Q;K503R
